Literature values, collected in paper PMC6753016.
Read-outs that look alike come from different tables or passages of the source.

Key:
Cathepsin L [1] = target: Cathepsin L (UniProt P07711)
Target sequence in this assay (P07711 292-333): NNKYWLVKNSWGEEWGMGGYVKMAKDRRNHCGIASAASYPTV

Cathepsin H [2] = target: Cathepsin H (UniProt P09668)
Target sequence in this assay (P09668 116-335): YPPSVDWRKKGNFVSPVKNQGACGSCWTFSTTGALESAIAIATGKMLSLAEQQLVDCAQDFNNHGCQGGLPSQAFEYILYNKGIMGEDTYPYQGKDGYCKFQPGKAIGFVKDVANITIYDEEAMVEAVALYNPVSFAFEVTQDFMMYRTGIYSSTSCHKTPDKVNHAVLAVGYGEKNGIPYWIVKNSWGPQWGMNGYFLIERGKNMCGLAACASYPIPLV

Cathepsin L [3] = target: Cathepsin L (UniProt P07711); remark: listed apart in the source
Target sequence in this assay (P07711 114-288, chain 1 of 2): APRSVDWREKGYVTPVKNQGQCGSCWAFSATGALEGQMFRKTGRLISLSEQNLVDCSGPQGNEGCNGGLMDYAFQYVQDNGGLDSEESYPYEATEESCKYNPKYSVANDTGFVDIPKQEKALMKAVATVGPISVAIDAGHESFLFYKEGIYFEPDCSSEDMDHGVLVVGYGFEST
Target sequence in this assay (P07711 292-333, chain 2 of 2): as the sequence (P07711 292-333) above

Cathepsin H [4] = target: Cathepsin H (UniProt P09668); remark: listed apart in the source
Target sequence in this assay (P09668 whole entry, looked up): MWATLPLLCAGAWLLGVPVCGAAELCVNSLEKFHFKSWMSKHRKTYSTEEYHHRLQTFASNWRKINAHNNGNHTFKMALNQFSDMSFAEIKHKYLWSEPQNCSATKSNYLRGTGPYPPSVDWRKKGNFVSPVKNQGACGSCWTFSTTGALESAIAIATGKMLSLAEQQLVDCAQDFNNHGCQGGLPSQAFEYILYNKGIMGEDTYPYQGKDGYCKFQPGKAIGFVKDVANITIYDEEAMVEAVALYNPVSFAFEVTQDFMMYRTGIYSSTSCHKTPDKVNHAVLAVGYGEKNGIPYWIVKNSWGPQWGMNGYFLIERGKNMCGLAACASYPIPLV

Cathepsin B [5] = target: Cathepsin B (UniProt P07858)
Cathepsin B [6] = target: Cathepsin B (UniProt P07858); remark: listed apart in the source
[7] = target: Factor XIIa (Homo sapiens) (UniProt P00748)
Trypsin (Bos taurus) [8] = target: Trypsin (Bos taurus) (UniProt P00760)
[9] = target: Porcine elastase (Sus scrofa) (UniProt P00772)
β-Trypsin (Bos taurus) = β-Trypsin (Bos taurus) (UniProt P00760)
[10] = target: Kallikrein 5 (Homo sapiens) (UniProt Q9Y337)
[11] = target: Kallikrein 14 (Homo sapiens) (UniProt Q9P0G3)
[12] = target: Cathepsin G (Homo sapiens) (UniProt P08311)
Trypsin (Bos taurus) [13] = target: Trypsin (Bos taurus) (UniProt P00760); remark: listed apart in the source
[14] = target: Kallikrein 7 (Homo sapiens) (UniProt P49862)
[15] = target: Matriptase (Homo sapiens) (UniProt Q9Y5Y6)
Cathepsin L [16] = target: Cathepsin L (UniProt P07711); remark: listed apart in the source
Target sequence in this assay (P07711 114-288, chain 1 of 2): as the sequence (P07711 114-288, chain 1 of 2) above
Target sequence in this assay (P07711 292-333, chain 2 of 2): as the sequence (P07711 292-333) above

Cathepsin H [17] = target: Cathepsin H (UniProt P09668); remark: listed apart in the source
Target sequence in this assay (P09668 whole entry, looked up): as the sequence (P09668 whole entry, looked up) above

Cathepsin H [18] = target: Cathepsin H (UniProt P09668); remark: listed apart in the source
Target sequence in this assay (P09668 116-335): as the sequence (P09668 116-335) above

Cathepsin L [19] = target: Cathepsin L (UniProt P07711); remark: listed apart in the source
Target sequence in this assay (P07711 292-333): as the sequence (P07711 292-333) above

Corn cystatin-I, sequence (P31726 25-135): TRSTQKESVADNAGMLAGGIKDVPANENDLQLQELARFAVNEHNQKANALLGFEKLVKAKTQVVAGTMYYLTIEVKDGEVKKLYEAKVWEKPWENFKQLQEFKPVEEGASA
Corn Hageman factor inhibitor, sequence (P01088 29-138): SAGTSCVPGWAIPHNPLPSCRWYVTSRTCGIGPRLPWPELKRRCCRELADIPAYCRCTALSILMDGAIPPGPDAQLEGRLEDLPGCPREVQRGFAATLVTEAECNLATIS
Trypsin (Bos taurus), sequence (P00760 149-246): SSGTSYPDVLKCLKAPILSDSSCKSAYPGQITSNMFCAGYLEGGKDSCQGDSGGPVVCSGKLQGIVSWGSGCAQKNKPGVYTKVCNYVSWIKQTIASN
Factor XIIa (Homo sapiens), sequence (P00748 whole entry, looked up): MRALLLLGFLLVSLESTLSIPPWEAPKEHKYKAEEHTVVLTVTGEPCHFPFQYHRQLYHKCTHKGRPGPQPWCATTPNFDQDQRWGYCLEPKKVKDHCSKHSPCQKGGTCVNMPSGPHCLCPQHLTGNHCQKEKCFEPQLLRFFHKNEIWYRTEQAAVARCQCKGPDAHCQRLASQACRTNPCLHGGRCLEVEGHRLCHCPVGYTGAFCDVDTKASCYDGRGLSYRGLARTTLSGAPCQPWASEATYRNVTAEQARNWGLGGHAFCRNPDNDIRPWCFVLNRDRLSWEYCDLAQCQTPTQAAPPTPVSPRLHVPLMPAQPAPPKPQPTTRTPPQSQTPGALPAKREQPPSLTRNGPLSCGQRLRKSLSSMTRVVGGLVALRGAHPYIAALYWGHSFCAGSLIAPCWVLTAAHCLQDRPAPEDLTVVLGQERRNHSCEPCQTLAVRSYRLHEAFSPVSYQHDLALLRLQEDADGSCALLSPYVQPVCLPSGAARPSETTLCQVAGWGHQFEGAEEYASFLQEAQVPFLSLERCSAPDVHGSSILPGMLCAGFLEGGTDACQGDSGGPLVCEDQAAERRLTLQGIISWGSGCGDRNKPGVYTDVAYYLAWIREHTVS
Kallikrein 5 (Homo sapiens), sequence (Q9Y337 23-293): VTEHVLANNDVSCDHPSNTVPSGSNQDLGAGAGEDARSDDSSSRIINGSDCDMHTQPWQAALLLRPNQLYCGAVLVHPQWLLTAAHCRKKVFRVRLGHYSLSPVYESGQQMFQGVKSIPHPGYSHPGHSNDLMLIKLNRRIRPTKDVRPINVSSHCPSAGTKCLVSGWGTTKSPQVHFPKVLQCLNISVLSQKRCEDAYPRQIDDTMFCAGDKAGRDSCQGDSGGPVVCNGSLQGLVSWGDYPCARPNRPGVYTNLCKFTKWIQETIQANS
Kallikrein 14 (Homo sapiens), sequence (Q9P0G3 41-267): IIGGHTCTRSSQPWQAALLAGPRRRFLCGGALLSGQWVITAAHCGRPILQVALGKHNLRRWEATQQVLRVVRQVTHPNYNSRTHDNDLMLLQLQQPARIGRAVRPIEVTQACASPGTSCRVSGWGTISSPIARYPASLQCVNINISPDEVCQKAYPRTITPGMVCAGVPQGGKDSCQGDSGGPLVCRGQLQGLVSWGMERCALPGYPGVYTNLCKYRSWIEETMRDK
MTI-2, sequence (P26780 31-93): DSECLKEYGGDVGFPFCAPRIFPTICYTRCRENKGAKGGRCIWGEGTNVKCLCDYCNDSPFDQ
Matriptase (Homo sapiens), sequence (Q9Y5Y6 whole entry): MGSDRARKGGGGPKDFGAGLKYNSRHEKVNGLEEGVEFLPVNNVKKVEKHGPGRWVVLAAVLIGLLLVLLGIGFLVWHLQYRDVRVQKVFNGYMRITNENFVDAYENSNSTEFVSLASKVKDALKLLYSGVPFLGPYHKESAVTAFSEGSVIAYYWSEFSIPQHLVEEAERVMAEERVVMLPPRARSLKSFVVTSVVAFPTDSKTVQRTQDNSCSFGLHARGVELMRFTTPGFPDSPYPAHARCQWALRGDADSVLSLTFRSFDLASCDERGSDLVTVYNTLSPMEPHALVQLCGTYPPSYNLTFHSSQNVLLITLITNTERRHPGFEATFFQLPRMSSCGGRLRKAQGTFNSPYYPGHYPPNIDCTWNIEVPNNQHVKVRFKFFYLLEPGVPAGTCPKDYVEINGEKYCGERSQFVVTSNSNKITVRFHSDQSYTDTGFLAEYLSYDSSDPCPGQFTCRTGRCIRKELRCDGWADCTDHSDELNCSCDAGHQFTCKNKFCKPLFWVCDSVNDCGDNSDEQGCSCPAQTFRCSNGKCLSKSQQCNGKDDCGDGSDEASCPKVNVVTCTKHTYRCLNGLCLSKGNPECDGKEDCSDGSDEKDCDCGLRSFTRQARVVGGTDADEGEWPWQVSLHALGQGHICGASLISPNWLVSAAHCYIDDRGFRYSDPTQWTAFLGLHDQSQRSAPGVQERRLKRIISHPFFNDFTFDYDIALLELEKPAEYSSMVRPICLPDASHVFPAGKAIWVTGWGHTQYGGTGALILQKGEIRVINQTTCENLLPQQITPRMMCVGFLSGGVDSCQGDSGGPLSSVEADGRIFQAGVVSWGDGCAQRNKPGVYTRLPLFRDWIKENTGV
Cathepsin G (Homo sapiens), sequence (P08311 21-243): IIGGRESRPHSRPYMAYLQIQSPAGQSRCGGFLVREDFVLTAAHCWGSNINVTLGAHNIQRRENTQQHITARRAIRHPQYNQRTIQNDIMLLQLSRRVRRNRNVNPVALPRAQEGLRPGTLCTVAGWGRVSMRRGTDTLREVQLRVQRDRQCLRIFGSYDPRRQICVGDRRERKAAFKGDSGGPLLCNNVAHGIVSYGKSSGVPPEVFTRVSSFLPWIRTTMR
β-Trypsin (Bos taurus), sequence (P00760 149-246): as the sequence (P00760 149-246) above
MCEI-III, sequence (P10296 2-31): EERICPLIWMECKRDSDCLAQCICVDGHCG
Porcine elastase (Sus scrofa), sequence (P00772 27-266): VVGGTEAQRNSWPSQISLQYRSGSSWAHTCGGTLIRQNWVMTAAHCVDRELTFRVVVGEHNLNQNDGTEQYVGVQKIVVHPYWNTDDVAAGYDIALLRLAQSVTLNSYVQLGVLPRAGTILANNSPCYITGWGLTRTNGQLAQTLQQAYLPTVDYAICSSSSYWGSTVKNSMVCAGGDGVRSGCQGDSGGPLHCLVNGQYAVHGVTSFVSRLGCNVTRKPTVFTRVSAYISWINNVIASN
Kallikrein 7 (Homo sapiens), sequence (P49862 30-253): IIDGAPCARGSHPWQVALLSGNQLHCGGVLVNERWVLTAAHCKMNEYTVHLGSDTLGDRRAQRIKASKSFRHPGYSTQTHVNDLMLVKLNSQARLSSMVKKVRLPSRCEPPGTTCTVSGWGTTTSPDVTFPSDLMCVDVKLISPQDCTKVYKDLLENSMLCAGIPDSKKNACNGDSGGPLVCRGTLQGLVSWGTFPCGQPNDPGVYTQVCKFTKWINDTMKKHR

Oryzacystatin-I (from UniProt P09229)
Ki (Cathepsin L [1]): 0.73 nM | Ki (Cathepsin H [2]): 1000 nM | Ki (Cathepsin L [3]): 0.73 nM | Ki (Cathepsin H [4]): 1000 nM | Ki (Cathepsin B [5]): 79 nM | Ki (Cathepsin B [6]): 79 nM

Corn Hageman factor inhibitor (from UniProt P01088)
Ki [7]: 2 nM | Ki (Trypsin (Bos taurus) [8]): 23 nM

MCEI-III (from UniProt P10296)
Ki [9]: 4 nM

MTI-2 (from UniProt P26780)
Ki (β-Trypsin (Bos taurus)): 0.01 nM

SFTI-I (from UniProt Q4GWU5)
Ki [10]: 140 nM | Ki [11]: 25 nM | Ki [12]: 730 nM | Ki (Trypsin (Bos taurus) [13]): 0.17 nM | Ki [14]: 740 nM | Ki [15]: 200 nM

Corn cystatin-I (from UniProt P31726)
Ki (Cathepsin L [16]): 17 nM | Ki (Cathepsin H [17]): 5.7 nM | Ki (Cathepsin H [18]): 5.7 nM | Ki (Cathepsin L [19]): 17 nM
